Results reported in patent US20230355720A1, “PHARMACEUTICAL COMPOSITION FOR PREVENTING OR TREATING BONE DISEASES, COMPRISING TRIPLE AGONIST OR CONJUGATE THEREOF HAVING ACTIVITY WITH RESPECT TO ALL OF GLUCAGON, GLP-1 AND GLP RECEPTORS” (HANMI PHARM. CO., LTD., priority 2020, published 2023).
Bridge positions count the residues as written; N and C are the ends. Square brackets hold non-standard residues; d marks the D form. Ends that are not written are not given here. * marks the point of attachment. Acetyl(2-(4-imidazolyl)) = O=C(Cc1c[nH]cn1)*; Aib = CC(C)(N)C(=O)O

Columns and labels:
Assay in all cases: cell-based or functional assay
human GCG receptor = human GCG receptor (human, UniProt P47871 26-477)
human GCG receptor, sequence (P47871 26-477): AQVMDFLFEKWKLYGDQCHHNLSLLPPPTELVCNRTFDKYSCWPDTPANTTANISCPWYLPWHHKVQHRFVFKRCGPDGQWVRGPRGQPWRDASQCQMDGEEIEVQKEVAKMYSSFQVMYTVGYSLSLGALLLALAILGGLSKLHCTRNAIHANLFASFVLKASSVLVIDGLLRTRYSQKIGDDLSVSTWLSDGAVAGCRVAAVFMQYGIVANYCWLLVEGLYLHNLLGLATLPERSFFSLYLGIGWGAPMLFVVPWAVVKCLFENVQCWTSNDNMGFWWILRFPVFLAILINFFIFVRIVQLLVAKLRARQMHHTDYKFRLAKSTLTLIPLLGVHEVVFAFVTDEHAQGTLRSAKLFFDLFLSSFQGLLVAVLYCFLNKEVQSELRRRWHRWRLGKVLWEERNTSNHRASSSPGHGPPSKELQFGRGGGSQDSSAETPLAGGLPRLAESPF

human GIP receptor = target: T1, human GIP receptor (human, UniProt P48546 22-466)
T1 sequence (looked up): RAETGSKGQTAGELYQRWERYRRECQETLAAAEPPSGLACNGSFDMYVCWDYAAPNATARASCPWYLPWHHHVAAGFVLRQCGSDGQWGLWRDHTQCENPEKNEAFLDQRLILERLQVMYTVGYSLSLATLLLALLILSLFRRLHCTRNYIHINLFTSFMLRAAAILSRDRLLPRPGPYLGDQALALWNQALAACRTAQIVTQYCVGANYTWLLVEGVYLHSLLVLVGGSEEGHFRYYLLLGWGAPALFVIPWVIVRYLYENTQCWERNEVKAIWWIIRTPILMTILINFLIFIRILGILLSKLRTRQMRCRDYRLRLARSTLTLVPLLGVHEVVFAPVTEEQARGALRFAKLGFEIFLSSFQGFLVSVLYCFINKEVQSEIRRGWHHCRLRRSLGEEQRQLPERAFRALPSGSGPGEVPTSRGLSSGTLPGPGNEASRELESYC

human GLP-1 receptor = human GLP-1 receptor (human, UniProt P43220 24-463)

Binder | In vitro activity (%) compared with native peptide, vs Glucagon (human GCG receptor) | In vitro activity (%) compared with native peptide, vs GIP (human GIP receptor) | In vitro activity (%) compared with native peptide, vs GLP-1 (human GLP-1 receptor)
[Acetyl(2-(4-imidazolyl))][Aib]QGTFTSDYSICMDEKHQKDFVNWLLNTK (bridge 16-20; not fully specified) [triple agonist of SEQ ID NO: 59] | < 0.1% | 4% | 40.3%
[Acetyl(2-(4-imidazolyl))][Aib]QGTFTSDYSIAMDEIACKDFVNWLLNTK (bridge 16-20; not fully specified) [triple agonist of SEQ ID NO: 61] | < 0.1% | 2.8% | 59.8%
H[Aib]QGTFTSDVSSYLLGQQQKEFIAWLVKGGGPSSGAPPPSC [triple agonist of SEQ ID NO: 5] | < 0.1% | < 0.1% | 42.1%
H[Aib]QGTFTSDYSKYLDEKRQKEFVQWLLNTKC (bridge 16-20) [triple agonist of SEQ ID NO: 58] | 2.6% | 0.2% | 39.1%
H[Aib]QGTFTSDYSKYLCEKRQKEFVQWLLNGGPSSGAPPPSG (bridge 16-20) [triple agonist of SEQ ID NO: 36] | 0.39% | 0.2% | 37.4%
HGQGTFTSDCSKQLDGQAAQEFVAWLLAGGPSSGAPPPS [triple agonist of SEQ ID NO: 44] | < 0.1% | < 0.1% | 1.3%
HGQGTFTSDCSKYLDGQRAQDFVNWLLAGGPSSGAPPPS [triple agonist of SEQ ID NO: 48] | < 0.1% | < 0.1% | 1.5%
HGQGTFTSDCSKYLDEQHAQEFVAWLLAGGPSSGAPPPS [triple agonist of SEQ ID NO: 46] | < 0.1% | < 0.1% | 1.4%
HGQGTFTSDCSKYMDGQAAQDFVAWLLAGGPSSGAPPPS [triple agonist of SEQ ID NO: 45] | < 0.1% | < 0.1% | 6.6%
HGQGTFTSDCSKYLDGQRAQEFVAWLLAGGPSSGAPPPS [triple agonist of SEQ ID NO: 47] | < 0.1% | < 0.1% | 2.4%
Y[Aib]QGTFTSDYSKYLDEKRAKEFVQWLLDHHPSSGQPPPSC (bridge 16-20) [triple agonist of SEQ ID NO: 42] | 206% | 7.8% | 33.9%
H[Aib]QGTFTSDKSKYLDECAAQDFVQWLLDGGPSSGAPPPS (not fully specified) [triple agonist of SEQ ID NO: 41] | < 0.1% | < 0.1% | 34.3%
H[Aib]QGTFTSDYSKYLDGQHAQCFVAWLLAGGGPSSGAPPPS [triple agonist of SEQ ID NO: 39] | 0.53% | < 0.1% | 13.9%
[Acetyl(2-(4-imidazolyl))][Aib]QGTFTSDKSKYLDERAAQDFVQWLLDGGPSSGAPPPS (not fully specified) [triple agonist of SEQ ID NO: 62] | < 0.1% | < 0.1% | 5.2%
H[Aib]QGTFTSDVSSYLDGQAAKEFVAWLLKGC [triple agonist of SEQ ID NO: 6] | < 0.1% | < 0.1% | 17%
H[Aib]QGTFTSDYSIAMDEIHQKDFVNWLLAQC (bridge 16-20; not fully specified) [triple agonist of SEQ ID NO: 55] | 0.7% | 2.4% | 27.1%
H[Aib]QGTFTSDVSSYLDGQAAKEFIAWLVKGC [triple agonist of SEQ ID NO: 1] | < 0.1% | < 0.1% | 3.2%
H[Aib]QGTFTSDYSKYLDEKRQKEFVNWLLAQKC (bridge 16-20) [triple agonist of SEQ ID NO: 34] | 0.92% | 0.6% | 19.1%
H[Aib]QGTFTSDYSIAMDEIHQKDFVNWLLNTC (bridge 16-20) [triple agonist of SEQ ID NO: 57] | < 0.1% | 0.3% | 11.7%
[Acetyl(2-(4-imidazolyl))][Aib]QGTFTSDYSICMDEIHQKDFVNWLLNTK (bridge 16-20) [triple agonist of SEQ ID NO: 49] | < 0.1% | 3.3% | 29.8%
H[Aib]QGTFTSDYSKYLDEKRAKEFVQWLLDHHPSSGQPPPSC (bridge 16-20) [triple agonist of SEQ ID NO: 50] | 50.5% | 2.7% | 67.4%
H[Aib]QGTFTSDYSKYLDECRQKEFVQWLLNGGPSSGAPPPSG (bridge 16-20) [triple agonist of SEQ ID NO: 37] | 6.21% | 2.2% | 236%
H[Aib]QGTFTSDKSKYLDERACQDFVQWLLDGGPSSGAPPPS (not fully specified) [triple agonist of SEQ ID NO: 40] | < 0.1% | < 0.1% | 75.2%
H[Aib]EGTFTSDYSIAMDEIHQKDFVNWLLAQC (bridge 16-20; not fully specified) [triple agonist of SEQ ID NO: 53] | 8.4% | 1.3% | 161%
[Acetyl(2-(4-imidazolyl))][Aib]QGTFTSDYSIAMDEKHCKDFVNWLLNTK (bridge 16-20; not fully specified) [triple agonist of SEQ ID NO: 60] | < 0.1% | 8.2% | 106%
Y[Aib]QGTFTSDYSKYLDEKRAKEFVQWLLDHHCSSGQPPPS (bridge 16-20) [triple agonist of SEQ ID NO: 43] | 88.4% | 3.7% | 12.6%
H[Aib]QGTFTSDVSSYLLGQQQKEFIAWLVKGC [triple agonist of SEQ ID NO: 4] | < 0.1% | < 0.1% | 8.5%
H[Aib]EGTFTSDYSIAMDEIHQKDFVDWLLAEC (bridge 16-20) [triple agonist of SEQ ID NO: 54] | 1.4% | 0.1% | 30.6%
[Acetyl(2-(4-imidazolyl))][Aib]QGTFTSDKSSYLDERAAQDFVQWLLDGGPSSGAPPPSS (not fully specified) [triple agonist of SEQ ID NO: 38] |  |  | 2.3%
